US20230078601A1 (CLEVELAND CLINIC FOUNDATION, published 2023)

Legend:
Native p17-33 = biological target: T1, Native p17-33; assay: SPOT peptide array of membrane-bound 17-mer peptides, 4D12G1, chemiluminescence
T1 construct: also called AMHR2-ED 17-33 17-mer peptide
T1 peptide: GSTKTLGELLDTGTELP
Experimental: (§1) on cellulose membranes (JPT Peptide Technologies, Berlin, Germany), treated overnight with blocking buffer (Thermo Fisher), followed by treatment with the 4D12G1 mAb at 1.0 μg/ml for 3 hours at room temperature, followed by three washes with PBS containing 0.01% Tween-20 (Bio-Rad). The membranes were then treated with a 1:10,000 dilution of an HRP-conjugated rabbit anti-mouse IgG (MilliporeSigma) followed by three washes with PBS containing 0.01% Tween-20 (Bio-Rad). Bound antibody was detected using the HyGLO chemiluminescence system (Thomas Scientific).
An overlapping series of 16-mer peptides spanning the entire 132 amino acid sequence of human AMHR2-ED (FIG. 3A) with moving single amino acid shifts were plated for direct ELISA testing using the 4D12G1 mAb as primary antibody. […] To determine amino acids recognized by the 4D12G1 mAb, an overlapping series of peptides spanning the immunoreactive sequence comprising AMHR2-ED 13-30 were synthesized with alanine substitutions at each N-terminal residue or with glycine substitutions for any native N-terminal alanine. These peptides were used in competitive ELISAs to determine which residues inhibit binding of the 4D12G1 mAb with solid phase rhAMHR2-ED. […] Bound antibody was detected by chemiluminescence. […]

15-30 = biological target: T2, 15-30; assay: direct ELISA on plated overlapping 16-mer peptides of AMHR2-ED, 4D12G1 as primary antibody
T2 construct: overlapping 16-mer of human AMHR2-ED; also called p15-30; AMHR2-ED 15-30 16-mer peptide
T2 peptide: VRGSTKTLGELLDTGT
Experimental: (§2) Competitive ELISAs were used to determine the AMHR2-ED sequence recognized by the 4D12G1 mAb. A set of overlapping 16-mer peptides spanning the entire 132 amino acid sequence of human AMHR2-ED was generated. Each peptide shifted by one amino acid and all cysteine residues were replaced by serine to avoid disulfide bond formation (Thermo Fisher). Individual 16-mer peptides were plated in solid phase in microtiter wells, increasing concentrations of each 16-mer peptide were incubated with the 4D12G1 mAb in liquid phase, and ELISAs were performed as described above. The binding site of the 4D12G1 mAb was confirmed by competitive ELISA using overlapping peptides containing alanine substitutions for each amino acid spanning the immunoreactive region of AMEIR2-ED. The substituted peptides were used in liquid phase with the 4D12G1 mAb to determine binding inhibition to rhAMHR2-ED in solid phase. The AMHR2-ED binding sequence of the 4D12G1 mAb and the critical AMHR2-ED residues for such binding were confirmed by SPOT peptide arrays. Peptides spanning the AMHR2-ED 9-40 immunoreactive region and ranging from 4-16-mers in length were synthesized >90% pure on cellulose membranes (JPT Peptide Technologies, Berlin, Germany), treated overnight with blocking buffer (Thermo Fisher), followed by treatment with the 4D12G1 mAb at 1.0 μg/ml for 3 hours at room temperature, followed by three washes with PBS containing 0.01% Tween-20 (Bio-Rad). The membranes were then treated with a 1:10,000 dilution of an HRP-conjugated rabbit anti-mouse IgG (MilliporeSigma) followed by three washes with PBS containing 0.01% Tween-20 (Bio-Rad). Bound antibody was detected using the HyGLO chemiluminescence system (Thomas Scientific).
(§3) An overlapping series of 16-mer peptides spanning the entire 132 amino acid sequence of human AMHR2-ED (FIG. 3A) with moving single amino acid shifts were plated for direct ELISA testing using the 4D12G1 mAb as primary antibody. […] To determine amino acids recognized by the 4D12G1 mAb, an overlapping series of peptides spanning the immunoreactive sequence comprising AMHR2-ED 13-30 were synthesized with alanine substitutions at each N-terminal residue or with glycine substitutions for any native N-terminal alanine.

16-31 = biological target: T3, 16-31; assay: as above
T3 construct: overlapping 16-mer of human AMHR2-ED; also called p16-31; AMHR2-ED 16-31 16-mer peptide
T3 peptide: RGSTKTLGELLDTGTE
Experimental: as §2, §3

13-28 = biological target: T4, 13-28; assay: as above
T4 construct: overlapping 16-mer of human AMHR2-ED; also called p13-28; AMHR2-ED 13-28 16-mer peptide
T4 peptide: PGVRGSTKTLGELLDT
Experimental: as §2, §3

[1] = biological target: T5, AMHR2-ED 22-26 5-mer peptide (LGELL) (human); assay: SPOT peptide array, 4D12G1 at 1.0 ug/ml, chemiluminescence
T5 construct: Synthesised on a cellulose membrane (SPOT peptide array); also called 22LGELL26; Residues 22-26 of AMHR2-ED and 39-43 of AMHR2
T5 peptide: LGELL
Experimental: as §1, with “The AMHR2-ED binding sequence of the 4D12G1 mAb and the critical AMHR2-ED residues for such binding were confirmed by SPOT peptide arrays. Peptides spanning the AMHR2-ED 9-40 immunoreactive region and ranging from 4-16-mers in length were synthesized >90% pure on cellulose” for “on cellulose”
as §3, with “alanine. […] Bound antibody was detected by chemiluminescence.” for “alanine.”

- binding result (Native p17-33): binds
- binding result (15-30): binds
- binding result (16-31): binds
- binding result (13-28): binds
- binding result [1]: binds
B1: 4D12G1 mAb (antibody, IgG1, V domains shown)
VH: DVKLVESGGGLVKLGGSLKLSCAASGFTFSRYFMSWVRQTPEKRLELVAAINSDGGRTYYPDTVKGRFTISRDNAKNTLYLQMSSLKSEDTALYYCTRHIYSYYEDYFDYWGQGTTLTVSS
VL: DVVMTQTPLSLPVSLGDQASISCRSSQSLVHSNGNTYLHWYLQKPGQSPKLLIYKVSKRFSGVPDRFSGSGSGTDFTLKISRVEAEDLGVYFCSQSTHVYTFGGGTKLEIK
notes: also called 4D12G1 IgG1 mAb
